Measurements from US20250177447A1.

Target: G protein-coupled receptor class C group 5 member D (GPRC5D) on tumor cells (MM.1S, RPMI8226, NCI-H929) (human) (UniProt Q9NZD1)
Test: cell-based or functional assay

UniProt Q9NZD1, sequence (Q9NZD1 whole entry): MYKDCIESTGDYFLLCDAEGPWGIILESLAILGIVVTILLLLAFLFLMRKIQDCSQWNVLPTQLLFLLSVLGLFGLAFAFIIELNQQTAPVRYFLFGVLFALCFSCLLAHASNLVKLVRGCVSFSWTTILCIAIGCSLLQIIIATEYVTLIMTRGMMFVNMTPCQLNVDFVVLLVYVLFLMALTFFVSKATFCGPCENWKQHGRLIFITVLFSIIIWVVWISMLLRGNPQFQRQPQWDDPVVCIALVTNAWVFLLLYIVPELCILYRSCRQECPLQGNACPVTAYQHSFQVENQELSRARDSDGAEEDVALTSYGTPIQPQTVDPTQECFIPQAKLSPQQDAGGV

Binder	% survival of MM.1S-ffluc cells, luciferase cytotoxicity assay, 24 h, E:T 1:1 [%]	% survival of MM.1S-ffluc cells, luciferase cytotoxicity assay, 24 h, E:T 1:2 [%]	% survival of MM.1S-ffluc cells, luciferase cytotoxicity assay, 24 h, E:T 1:4 [%]	% survival of RPMI8226-ffluc cells, luciferase cytotoxicity assay, 24 h, E:T 1:1 [%]	% survival of RPMI8226-ffluc cells, luciferase cytotoxicity assay, 24 h, E:T 1:2 [%]	% survival of RPMI8226-ffluc cells, luciferase cytotoxicity assay, 24 h, E:T 1:4 [%]	% survival of RPMI8226-ffluc cells, luciferase cytotoxicity assay, 24 h, E:T 1:8 [%]	% survival of MM.1S-ffluc cells, luciferase cytotoxicity assay, 24 h, E:T 1:8 [%]
CAR1, GPRC5D chimeric antigen receptor (CAR 1 (VL-VH)), expressed on human T cells (protein, part only; not given: CAR backbone and scFv linker, not shown: small tags and cut ends) chain, part: SSELTQDPAASVALGQTVRITCQGDSVRTYYAGWYQQKPGQAPVLVIYGKNHRPSGIPDRFSGSTSGNTASLTITGVQAEDEADYYCNSRDSSANPVFGGGTKVTVLQVQLVQSGAEVKKPGASVKVSCKASGYTFTSYYMHWVRQAPGQGLEWMGWINPNSGGTNYAQKFQGRVTITADKSTSTAYMELNSLRAEDTAVYYCVRSKGRAARNYYYMDVWGKGTTVTVSS	20	60	88	12	40	70	90	
CAR2, GPRC5D chimeric antigen receptor (CAR 2 (VL-VH)), expressed on human T cells (protein, part only; not given: CAR backbone and scFv linker, not shown: small tags and cut ends) chain, part: SSELTQDPAASVALGQTVKITCQGDSLRRYFASWYQQKPGQAPTLVTYGKNRRPSGVPDRLSGSSSGDTASLTITGAQAEDEGDYYCNSRDRSGTVVFGGGTKLTVLEVQLVESGGGVVQPGRSLRLSCAASGFTFSSYAMSWVRQAPGKGLEWVSAISGSGGSTYYAGSVKGRFTISRDNSKNTLYLQMNSLRAEDTAVYYCARDLYGYRYYYYGMDVWGQGTMVTVSS	< 5	15	35	3	10	25	50	85
